Laboratory results published in the nanobody polyreactivity screen of Harvey et al. (2022).

Assay: yeast display, Sf9 membrane polyspecificity reagent, FACS + sequencing; frameworks hold sequencing errors
Method in brief: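 A synthetic nanobody library was expressed on Saccharomyces cerevisiae BJ5465 by galactose induction for 36–48 hours. The library was stained for 1 hour at 4 °C with 10% biotinylated, detergent-solubilized Sf9 membrane reagent and enriched with streptavidin microbeads before FACS. Low and high (top ~1%) gates were set on anti-HA fluorescence for expression and streptavidin fluorescence for reagent binding, and each polyreactivity label reflects the gate of origin.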

Which “polyreactivity (PSR sort gate)” value does the source give for “QVQLVESGGGLVQAGGSLRISCAASGRTFPWYAMGWYRPAPGKERELVADITWSGGSTYYADSVKGRFTISRDNAKNTVYLQMNSLKPEDTAVYYCATRVLFWYRKYPGRPLTKYDYWGQGTQVTVSS” here?
The value was “high polyreactivity”.

With “QVQLVESGGGLVQAGGTLRISCAASGRTFGIYAMGWSRQAPGKERELVAAITGRGGSTHYADSVKGRFTISRDNAKNTVYLQMNSLQPEDTAVYYCAADYRYNRGITSNKDYEYWGQGTQVSVSS” as the sequence, how does the “polyreactivity (PSR sort gate)” value read?
The value was “low polyreactivity”.

Which “polyreactivity (PSR sort gate)” value does the source give for “QVQLVESGGGLVQAGGSLRLSCAASGFLFGWNAMGGYRQAPGKERELVAAISARGGSTSYADSVKGRFTISRDTAKNTVYLQMNSLKPEDTAVYYCSAKSAFPLDYWGQGTQVTVSS” here?
The value was “high polyreactivity”.

With “QVQLVESGGGLVQAGGSLRLSCAASGRTFLVYTMGWYREAPGKERELVAAISWSDGSTYYADSVKGRFTISRDNAKNTVYLQMNSLKPEDTADYYCAARRTGYLYRYGYWGQGTQVTVSS” as the sequence, how does the “polyreactivity (PSR sort gate)” value read?
The value was “low polyreactivity”.

With “QDQLVESGGGLVQAGGSLRLSCAASGSTLAGYAMGWYRLAPGKVRELVAAIDWTGGSTTYADSVKGRFTISRDNAKNTVYLQMNSLKPEDTAVYYCNVDLGVNGDYWGQGTQVTVSS” as the sequence, how does the “polyreactivity (PSR sort gate)” value read?
The value was “low polyreactivity”.

Which “polyreactivity (PSR sort gate)” value does the source give for “QVQLVESGGGLVQAGGSLRLSCAASGSTFGRNAMGWYRQSPGKERELVAAISSRGGGTYYADSVKGRFTISRDNAKNSVYLQMNSLKPEDTAVYYCAADYVYGYYPKYTYKPSGYWGQGTQVTVTS” here?
Its value is “high polyreactivity”.

For “QVQLVESGGGLVQAGGSLRLSCAASGRIFVRYDRGWYRQAPGKERELVAAISSSDGSTYYADSVKGRFTISRDNAKNTVYLQMNSLKPEDTAVYYCNADVSLDDYDYWGQGTQVTVSS”, which “polyreactivity (PSR sort gate)” value is on record?
Its value is “low polyreactivity”.

For “QVQLVESGGGLVQAGGSLRLSCAASGSTFRRYAMGWYRQAPGKERELVATITKRGGSTYYADSVKGRFTISRDNAKNTVYLQMNSLKPEDTAVYYCAADSAYWTYEYWGQGTQVTVSS”, which “polyreactivity (PSR sort gate)” value is on record?
Its value is “high polyreactivity”.

For “QVQLVESGGGLVQAGGSLRLSCAASGFTFYKYAMGWYRQAPGKERELVAAISYRGGRTYYADSVKGRFTISRDNAKNTVYLQMNSLKPEDTAVYYCAARGYVWNIGRYYWGQGTEVTVSS”, which “polyreactivity (PSR sort gate)” value is on record?
The value was “high polyreactivity”.

Which “polyreactivity (PSR sort gate)” value does the source give for “QVQLVESGGGLVQAGGSLRLSCAASGRIFYDYTMGWYRQAPGKERELVAAINSGGGSTYYADSVKGRFTISRDNAKITVYLQMNSLKPEDTAVYYCNADGQWNIWEYDYWGQGTQVTVSS” here?
The value was “high polyreactivity”.

With “QVQLVESGGGLVQAGGRLRLTCAASGRNYNGNAMGRYRQAPGTERELVAGIDSDGSTNYADSVKGRFTISRDNAKNTVYLQMNSLKPDDTAGYYCAAVQGYRFYEYYYWGQGTQVTVSS” as the sequence, how does the “polyreactivity (PSR sort gate)” value read?
The value was “low polyreactivity”.

For “QVQLVESGGGLVQAGGSLRLSCAASGRTFGVYMGWYRQAPGKERELVAVISSGDSTNYADSVKGRFTISRDNAKNTVYLLMNSLKPEDTAVYYCNAYGSDRLTLDDYWGQGTQVSVSS”, which “polyreactivity (PSR sort gate)” value is on record?
The value was “low polyreactivity”.

With “QVQLVESGGGLVQAGGSLRLICAASGSTFTLYAMGWYRQAPGKERELVAAISGIGDSTYYADSVKGRFTISRDNAKNTVYLQMNSLKPEDTAVYYCAADGEYRYDWEYESWGQGTQVTVSS” as the sequence, how does the “polyreactivity (PSR sort gate)” value read?
The value was “low polyreactivity”.

Which “polyreactivity (PSR sort gate)” value does the source give for “QVQLEESGGGLVQAGGSLRLSCAASGSIFGTYAMGWYRQAPGKEREFVAAISWSDGSTYYADSVKGRFTISRDNAKNTVYLQMNSLKPEDTAVYYCAVRRVGSIYIDRYIYVVADYDYWGQGTQVTVSS” here?
The value was “low polyreactivity”.

Which “polyreactivity (PSR sort gate)” value does the source give for “QVQLVESGGGLVQAGGSLRLSCAASGRIFGGYGRGWYRQAPGKERELVAAITSGDGSTYAESVKGRFTISRDNAKNTVYLQMNSLKPEDTAVYYCADESFGYSIDITDHEYWGQGTQVTVSS” here?
Its value is “high polyreactivity”.

Which “polyreactivity (PSR sort gate)” value does the source give for “QVQHVESGGGLDQAGGSLPLSCASSGSTFAYYAMGWYRQAPGKERELVASITWSGGITYYADSVKGRFTISRDNAKNTVYLQMNSLKPEETAVYYCNVVPYYGYYYWGQGSQVTVSS” here?
The value was “low polyreactivity”.

Which “polyreactivity (PSR sort gate)” value does the source give for “QVQLVESGGGFVQAGGSLRLSCAASGGIFDVYAMGWYRQAPGKERELVAAISENGGSTYYADSVKGRFTISRDNAKNTVYLQMNSLKPEDTAVYYCAADDVSLSVFSYWAWYDYWGQGSQVTVSS” here?
The value was “low polyreactivity”.

For “QVQLVESGGGLVQAGGSLRLSCAASGRIFSYYAMGWYRQAPGKERELVAAISYSRTYYADSVKGRFTISRDNAKNTVLLQMNSLKPEDTAVYYCNVKSKYRYGYWGQGTQVTVSS”, which “polyreactivity (PSR sort gate)” value is on record?
The value was “high polyreactivity”.

For “QDQLVESGGGLVQAGASLRLSCAASGNIFANAMGWYRQAPGKQRELVAAISRSGGRTYYADSVKGRFTISRDNANNTVYLQMKSLIPEDTAVSYCNKAAYNYYLYGYWGQGTQVTVSS”, which “polyreactivity (PSR sort gate)” value is on record?
The value was “high polyreactivity”.

For “QVQLVQSGGGLVQEGGSLRLSCYASGRIFSIYTLGWYRQAPGKERELVAAIRWSGGSTYYADSVKWRLTISRDNAKNTVYLQMNSLKPEDTAVYYCARQSVLGYRSYGPFPKYYYWGQGTQVTVSS”, which “polyreactivity (PSR sort gate)” value is on record?
The value was “high polyreactivity”.

With “QVQLVESGGGLVQAGGSLRLSCAASGITFYTNAMGWYRQAPGKERELVAAISSGDSTNYADSVKGRFTISRDNAKNTVYLQMNSLKPEDTAVYYCAKEATQLVWIGMDYWGQGTQVTVSS” as the sequence, how does the “polyreactivity (PSR sort gate)” value read?
Its value is “low polyreactivity”.

With “HVQLVESGGGLVQAGGSLRLSCAASGFTFSGYVMGWYRQAPGKERELVAAISNSGGRTYADSVKGRFTISRDNAKNTVYLQMNSLKPEDTAVYYCAKKPGGFSQASRVDYDYWGQGTQVTVSS” as the sequence, how does the “polyreactivity (PSR sort gate)” value read?
The value was “low polyreactivity”.

For “QVQLVESGGGLVQAGGSLRLSCAASGRIFKGNGMGWYRQAPGKERELVAAISSGGTYYADSVKGRFTISRDNAKNTVYLQMNSLKPEDTAVYYCAAQHRGVQVTFGEYDYWGQGTQVTVSS”, which “polyreactivity (PSR sort gate)” value is on record?
The value was “low polyreactivity”.

For “QVQLVESGGGLVQAGGSLRLSCAASGFIFYKNTMGWYRQAPGKERELVAAITDGDHTNYADSVKGRFTISRDYAKNTVYLQMNSLKPEDTAVYYCAADYAWNYAFGYWGQGTQVTVSS”, which “polyreactivity (PSR sort gate)” value is on record?
Its value is “low polyreactivity”.

Which “polyreactivity (PSR sort gate)” value does the source give for “QVQLVESGGGLVQAGGSLRLSCAASGPIFRGYAMGWYRQAPGKERELVARITSGGRTYYADSVKGRFTISRDNAKNTVYLQMNSLKPEDTAVYYCATVGRGYDERHNYWGQGTQVTVSS” here?
Its value is “high polyreactivity”.

Which “polyreactivity (PSR sort gate)” value does the source give for “QVQLVESGGGLVQAGGSLRLSCAASGSIIPGYTMGWYRQAPGKERELVAAITSSGGSTYYADSVKGRFTISRDNAKNTVYLQMNSLKPEDTAVYYCNAPFWGYRTSFSYPVVQRFDYWGQGTQVPVSS” here?
The value was “low polyreactivity”.

For “QVQLVESGGGLVQAGGSLRLSCAASGSIFRSYAMGWYRQAPGKERELDAAISRRGSSTYYADSVKGRFTISRDIAKNTVYLQMISLKPEDSAVYYCNRVRYPRVDYWGQGTQVTVSS”, which “polyreactivity (PSR sort gate)” value is on record?
The value was “high polyreactivity”.

With “QVQLVESGGGLVQAGGSLRLSCAASGNTFRYYAMGWYRQAPGKERELVAAISESGGRTYYADSVKGRFTISRDNAKNTVYLQMNSLNPEDTAVYYCAASRWARTWWYGYNYWGQGTQVTVSS” as the sequence, how does the “polyreactivity (PSR sort gate)” value read?
Its value is “high polyreactivity”.

For “QVQLVESGGGLVQAGGSLRLSCAASGSTLHSYAMGWYRQAPGKERELVAAISFRGGSTYADSVKGRFTISRDNAKNTVYLQMNSLKPEDTAVYYCAAYSVYTMYWGQGTQVTVSS”, which “polyreactivity (PSR sort gate)” value is on record?
The value was “low polyreactivity”.

Which “polyreactivity (PSR sort gate)” value does the source give for “QVQLVESGGGLVQAGGSLRLSCAASGRIFSRNAMGWYRQAPGKDRELVAAISRSGTSTYYADSGKGRFTISRDNAKNTVYLQMNSLKPEDTAVYYCAADSWSRSVNYYYWGQGTQVTVSS” here?
Its value is “low polyreactivity”.

Which “polyreactivity (PSR sort gate)” value does the source give for “QVQLVESGGGLVQAGGSLRLSCAASGRIFTWYAMGWYRQAPGKERELVAAISSAGRTYYADSVKGRFTISRDNAKNTVYLQMNSLKPEDTAVYYCAKVSKYRHFYTFDYWGQGTQVTVSS” here?
Its value is “high polyreactivity”.

For “QVQLVESGGGLLQAGGSLRLSCAASGRIFVVYAMGWYRQAPGKERELVASITWRGGSTYYADSVKGRFTISRDNAKNTVYLQMNSLKPEDTAVYYCAAELDVYVSIGSRFHFDYWGQGTQVTVSS”, which “polyreactivity (PSR sort gate)” value is on record?
The value was “low polyreactivity”.
